Data on one molecule can be found in patent US20250236644A1 (University of Washington, published 2025).

Holding throughout (test): FP titration, 1 nM peptide, hinge varied
Test [1] addresses T1, TAMRA-labeled effector peptide cs074B (5(6)-TAMRA label coupled on resin after synthesis).
T1 construct: Chemically synthesized; also called TAMRA-cs074B
T1 peptide: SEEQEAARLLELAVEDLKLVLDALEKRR
On the procedure: (§1) FIG. 10. Redesign of hinges to bind other target peptides. An experimentally tested hinge (top, cs201) is redesigned using a one-sided two-state design approach to bind to different target peptides. Hinges csw13 and csw20 are designed to bind to peptides cs221B and cs074B, respectively, while having a backbone conformation that is similar to the parent cs201 that binds cs201B. Left: design models, right: FP titrations using 1 nM peptide (cs201B, cs221B, cs074B, js007B) and varying concentrations of hinge (from top to bottom: cs201, csw13, csw20). csw13 is an example of a successful orthogonal redesign that specifically binds the new target peptide cs221B while not binding the parent target peptide cs201B or the off-target peptides cs074B or js007B. csw20 is a less orthogonal example that binds the new target peptide cs074B most strongly but still binds to the parent-target peptide cs201B and to the off-target peptide cs221B albeit weaker than the new target.
(§2) All FP measurements were performed at 25° C. in 96-well plates (Corning 3686) using a Synergy Neo2™ plate reader and a 530/590 nm filter cube. The buffer for all FP measurements was 20 mM Tris-HCl, 100 mM NaCl, 0.05% v/v TWEEN20 at pH 8. Titrations were carried out in 96-well format, with 4 replicates per plate and 24 data points per titration (23 steps of two-fold serial dilution of hinges in the presence of TAMRA-labeled peptide at a constant concentration between 0.1 nM and 1 nM) with a final sample volume of 80 μl per well. Titration plates were incubated overnight at room temperature before measuring to ensure complete equilibration. The polarization signal S (as calculated by the Neo2™ software) was fitted to the equation

In test [2] the target is T2, TAMRA-labeled effector peptide cs201B (5(6)-TAMRA label coupled on resin after synthesis).
T2 construct: also called TAMRA-cs201B
T2 peptide: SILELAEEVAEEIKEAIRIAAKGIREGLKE
On the procedure:
as §1, §2

In test [3] the target is T3, TAMRA-labeled effector peptide cs221B (5(6)-TAMRA label coupled on resin after synthesis).
T3 construct: also called TAMRA-cs221B
T3 peptide: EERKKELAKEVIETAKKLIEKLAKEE
On the procedure:
as §1, §2

In test [4] the target is T4, TAMRA-labeled effector peptide js007B (5(6)-TAMRA label coupled on resin after synthesis).
T4 construct: also called TAMRA-js007B
T4 peptide: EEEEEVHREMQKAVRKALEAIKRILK
On the procedure:
as §1, §2

B1: swapped target hinge csw13 (designed binder)
chain: MSGNEEVKKLVEEAKKYLKEAEEYIKKAKKTGNEELLEKALKLLEKALELVKKAIELDPNNKEAIEQAVEIARALNEVAELLIEEAKKTGNEELLEKALEALEAANEALKLAIENNENDKELLAEIAVELAEVGVLLAEVLIEEAKKTGDPELLKLALEVLEAAVEALELALKLDPNNEEAVELAEEAAKLLEEVAKELKEEAKKTGDPELEKLAKEAEELAKRAKELAERQRGSGSHHWGSTHHHHHH
Turning to B1, the binding result in test [1] was “no binding”; in test [2] it was “no binding”; in test [3], “binds”; in test [4], “no binding”.
